Assay results taken from article doi:10.1101/2024.05.15.594416 (bioRxiv, 2024).
Changes are numbered by the printed parent chain. Names may count otherwise.

Key:
[1] = biological target: T1, soluble CD14 (sCD14), wildtype (human, UniProt P08571 20-367); assay: BLI
T1 sequence (looked up): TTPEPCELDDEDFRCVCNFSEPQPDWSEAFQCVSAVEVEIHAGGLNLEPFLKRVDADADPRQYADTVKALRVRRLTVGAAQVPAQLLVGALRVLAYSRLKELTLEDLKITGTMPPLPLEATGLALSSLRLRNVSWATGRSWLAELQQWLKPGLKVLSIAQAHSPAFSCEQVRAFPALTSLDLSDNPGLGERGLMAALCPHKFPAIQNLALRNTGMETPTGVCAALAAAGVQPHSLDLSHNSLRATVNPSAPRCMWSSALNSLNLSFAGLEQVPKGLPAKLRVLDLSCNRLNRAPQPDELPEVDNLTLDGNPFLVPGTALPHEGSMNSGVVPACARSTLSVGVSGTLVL

[2] = biological target: T2, soluble CD14 Surface II mutant (R90E/R92E/R117E) (human, UniProt P08571 20-367, R90E | R92E | R117E); assay: BLI
T2 sequence (looked up): T1 sequence (looked up) with R71E, R73E, R98E

B1: S100A9/C3S/P114C, biotinylated (natural protein, human)
chain: TSKMSQLERNIETIINTFHQYSVKLGHPDTLNQGEFKELVRKDLQNFLKKENKNEKVIEHIMEDLDTNADKQLSFEEFIMLMARLTWASHEKMHEGDEGPGHHHKPGLGEGTC
modifications: biotin (EZ-link BMCC kit; biotinylation confirmed by MALDI-TOF)
B1 gave a Kd [1] of 3.9 µM and a Kd [2] of 10 µM.
